In paper PMC5555656 (Molecular Biology of the Cell, 2017):

Target: T1, hexahistidine (his6)-tagged Qc-SNARE Vam7 (yeast, UniProt P32912 1-316)
T1 sequence (looked up): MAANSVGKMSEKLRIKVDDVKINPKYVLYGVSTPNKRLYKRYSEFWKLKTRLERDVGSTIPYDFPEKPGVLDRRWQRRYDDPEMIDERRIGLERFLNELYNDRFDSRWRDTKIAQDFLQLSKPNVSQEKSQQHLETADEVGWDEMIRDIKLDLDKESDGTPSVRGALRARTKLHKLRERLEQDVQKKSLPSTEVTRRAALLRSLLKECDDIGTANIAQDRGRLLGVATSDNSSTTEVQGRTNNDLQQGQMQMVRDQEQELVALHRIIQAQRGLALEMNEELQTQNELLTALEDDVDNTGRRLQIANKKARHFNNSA
Assay: pull-down

binding result: binds
B1: yeast vacuolar R-SNARE Nyv1, membrane-anchored (natural protein, UniProt Q12255 1-253, looked up)
chain: MKRFNVSYVEVIKNGETISSCFQPFQKNENYGTITSANEQITPVIFHNLIMDMVLPKVVPIKGNKVTKMSMNLIDGFDCFYSTDDHDPKTVYVCFTLVDMPKILPIRILSGLQEYESNATNELLSSHVGQILDSFHEELVEYRNQTLNSSGNGQSSNGNGQNTISDIGDATEDQIKDVIQIMNDNIDKFLERQERVSLLVDKTSQLNSSSNKFRRKAVNIKEIMWWQKVKNITLLTFTIILFVSAAFMFFYLW
